In patent publication US20070059314A1:

Target: VEGF165 (UniProt P15692)
Assay: cell-based or functional assay

Sequence of VEGF165 (P15692 other isoform, or with tags, fused parts or gaps limits assumed): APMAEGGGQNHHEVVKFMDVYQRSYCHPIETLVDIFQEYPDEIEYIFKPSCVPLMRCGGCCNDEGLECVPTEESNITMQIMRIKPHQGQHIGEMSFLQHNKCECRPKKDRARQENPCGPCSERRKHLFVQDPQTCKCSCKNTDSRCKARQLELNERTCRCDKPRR

HUAEC cell proliferation induced by 2 ng/ml VEGF165 (crystal violet, OD 595 nm): 200 ng/mL
Substance: C-terminal fragment of the NOV protein (amino acids 188 to 357) (from UniProt P48745 188-357)
